Blank lines part the entries; values can stand above or below the binder they belong to.
What was measured:
Human collagen I = molecular target: T1, Human collagen I (human, UniProt P02452 162-1218; P08123 80-1119); assay: SPR
T1 construct: Bought (Sigma C5483); also called ColI; collagen 1

[1] = molecular target: T2, Human OSCAR (osteoclast-associated receptor), full length, on cells (human); assay: flow cytometry on human monocytes (CD14+ PBMC), Alexa Fluor 647-labelled mAb at 0.5 ug/ml
T2 construct: also called hOSCAR; HEK-OSCAR cells
T2 chain: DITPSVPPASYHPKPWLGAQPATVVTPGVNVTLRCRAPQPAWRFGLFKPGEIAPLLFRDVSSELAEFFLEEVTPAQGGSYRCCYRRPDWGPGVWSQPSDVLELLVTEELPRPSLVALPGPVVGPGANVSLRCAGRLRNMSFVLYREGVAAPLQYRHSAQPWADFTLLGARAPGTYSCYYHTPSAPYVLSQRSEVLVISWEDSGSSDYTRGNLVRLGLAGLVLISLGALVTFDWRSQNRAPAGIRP

T1 sequence (P02452 162-1218, chain 1 of 2): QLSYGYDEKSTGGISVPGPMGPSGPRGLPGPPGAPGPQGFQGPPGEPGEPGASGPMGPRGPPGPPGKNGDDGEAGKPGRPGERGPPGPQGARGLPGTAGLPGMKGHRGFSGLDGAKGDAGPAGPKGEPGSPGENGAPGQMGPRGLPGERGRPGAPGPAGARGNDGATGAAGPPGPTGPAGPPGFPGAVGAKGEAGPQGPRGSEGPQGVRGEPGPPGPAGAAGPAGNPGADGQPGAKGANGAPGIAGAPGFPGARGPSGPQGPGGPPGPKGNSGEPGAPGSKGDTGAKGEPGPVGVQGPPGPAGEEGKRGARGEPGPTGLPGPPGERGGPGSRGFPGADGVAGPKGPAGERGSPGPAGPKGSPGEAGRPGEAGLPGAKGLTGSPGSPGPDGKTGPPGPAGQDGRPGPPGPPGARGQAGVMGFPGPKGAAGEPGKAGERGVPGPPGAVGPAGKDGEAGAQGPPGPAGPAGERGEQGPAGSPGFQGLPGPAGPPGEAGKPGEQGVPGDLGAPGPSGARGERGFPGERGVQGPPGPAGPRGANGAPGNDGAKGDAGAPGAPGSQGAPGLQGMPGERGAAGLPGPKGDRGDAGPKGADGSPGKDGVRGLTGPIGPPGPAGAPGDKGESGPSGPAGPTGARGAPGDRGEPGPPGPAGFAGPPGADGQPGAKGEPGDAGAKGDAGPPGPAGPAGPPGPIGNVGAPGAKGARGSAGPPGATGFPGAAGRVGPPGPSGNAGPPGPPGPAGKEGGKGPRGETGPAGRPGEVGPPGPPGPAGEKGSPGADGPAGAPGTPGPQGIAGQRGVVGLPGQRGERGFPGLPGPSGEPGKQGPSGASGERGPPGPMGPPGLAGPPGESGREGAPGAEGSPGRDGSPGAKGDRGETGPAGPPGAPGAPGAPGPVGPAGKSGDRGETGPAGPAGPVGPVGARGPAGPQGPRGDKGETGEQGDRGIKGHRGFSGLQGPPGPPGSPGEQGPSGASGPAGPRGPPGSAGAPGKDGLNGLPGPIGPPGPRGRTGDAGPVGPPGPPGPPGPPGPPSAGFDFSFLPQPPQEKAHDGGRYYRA
T1 sequence (P08123 80-1119, chain 2 of 2): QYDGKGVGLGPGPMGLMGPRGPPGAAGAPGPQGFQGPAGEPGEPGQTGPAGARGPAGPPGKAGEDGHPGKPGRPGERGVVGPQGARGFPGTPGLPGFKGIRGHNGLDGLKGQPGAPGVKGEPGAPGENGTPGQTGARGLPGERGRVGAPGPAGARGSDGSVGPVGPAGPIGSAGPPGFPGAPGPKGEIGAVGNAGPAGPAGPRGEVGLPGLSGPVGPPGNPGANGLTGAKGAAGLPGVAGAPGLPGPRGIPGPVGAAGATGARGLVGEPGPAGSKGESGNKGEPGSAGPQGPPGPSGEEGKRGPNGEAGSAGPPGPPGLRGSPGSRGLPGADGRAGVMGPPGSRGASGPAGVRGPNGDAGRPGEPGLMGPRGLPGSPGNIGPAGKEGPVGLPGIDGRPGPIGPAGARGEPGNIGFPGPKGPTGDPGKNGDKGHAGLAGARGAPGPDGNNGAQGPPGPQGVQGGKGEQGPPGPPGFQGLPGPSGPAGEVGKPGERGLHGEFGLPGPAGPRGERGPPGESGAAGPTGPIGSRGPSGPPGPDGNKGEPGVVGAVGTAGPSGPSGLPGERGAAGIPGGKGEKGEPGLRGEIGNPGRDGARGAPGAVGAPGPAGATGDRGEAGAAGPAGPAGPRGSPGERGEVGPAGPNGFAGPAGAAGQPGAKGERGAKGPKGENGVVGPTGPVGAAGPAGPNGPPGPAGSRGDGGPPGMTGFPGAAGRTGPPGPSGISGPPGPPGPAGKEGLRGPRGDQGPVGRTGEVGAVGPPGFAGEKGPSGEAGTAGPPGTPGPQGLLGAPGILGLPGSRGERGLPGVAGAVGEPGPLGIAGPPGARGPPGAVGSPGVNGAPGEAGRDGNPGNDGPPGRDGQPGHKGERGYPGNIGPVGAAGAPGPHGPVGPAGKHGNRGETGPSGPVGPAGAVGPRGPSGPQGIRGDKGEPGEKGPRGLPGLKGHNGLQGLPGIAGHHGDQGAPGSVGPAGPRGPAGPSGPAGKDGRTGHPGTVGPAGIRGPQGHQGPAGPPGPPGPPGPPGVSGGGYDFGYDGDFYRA

Kd (Human collagen I): 255 nM
B1: recombinant extracellular domain of human OSCAR (OSCAR-ECD) (receptor)
chain: DITPSVPPASYHPKPWLGAQPATVVTPGVNVTLRCRAPQPAWRFGLFKPGEIAPLLFRDVSSELAEFFLEEVTPAQGGSYRCCYRRPDWGPGVWSQPSDVLELLVTEELPRPSLVALPGPVVGPGANVSLRCAGRLRNMSFVLYREGVAAPLQYRHSAQPWADFTLLGARAPGTYSCYYHTPSAPYVLSQRSEVLVISWEDSGSSDYTR
notes: The printed entry starts with the putative signal peptide; also called Human OSCAR-ECD; OSACAR-ECD

binding result [1]: binds
B2: anti-OSCAR mAb 13F5A5 (antibody, V domains shown)
VH: EVQLVQSGAEVKKPGESLKISCKGSGYSFTSYWIVWVRQMPGKGLEWMGSIYPGDSDARYSPSFQGQVTISADKSISTAYLQWSSLKASDTAMYYCARQKITMVRGVIITPLDGMDVWGQGTTVTVSS
VL: not shown
notes: Fully human mAb (HuMab mice)

binding result [1]: binds
B3: anti-OSCAR mAb 16F56A2 (antibody, V domains shown)
VH: QVQLVQSGAEVKKPGSSVKVSCKASGGTFSNYAISWVRQAPGQGLEWMGRIIPILGIAHNAQKFQDRVTITADKSTSTAYMELSSLRSEDTAVYYCASPSSGKGLPYWFFDLWGRGTLVTVSS
VL: DIQMTQSPSFLSASVGDRVTITCRASQSISSYLNWYQQKPGKAPKLLIYAASSLQSGVPSRFSGSGSGTDFTLTISSLQPEDFATYYCQCGYSTPLTFGGGTKVEIKR
notes: Human mAb
